The data set concerns the target T1, AP2-G D1 (Plasmodium falciparum, UniProt Q8I5I9 2123-2245).
T1 sequence: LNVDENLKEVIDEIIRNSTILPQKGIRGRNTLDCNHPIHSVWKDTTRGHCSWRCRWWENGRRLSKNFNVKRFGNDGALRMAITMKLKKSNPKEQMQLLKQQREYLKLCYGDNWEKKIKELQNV
Put plainly: gcPBM; about 25 ug protein; PBS, 1% milk, 0.2 mg/ml BSA, salmon testes DNA, 0.03% Triton X-100. Particulars: tags: N-terminal GST (pGEX-4T-1), kept; label: surface-attached array probe.

Numbering of substitutions follows the chain as printed.

B1: XGTACX_negctrl_site291 (dsDNA)
DNA 1: TTTTTTATATTTAAACTTCACATGGTTTTCATTTAT
DNA 2: ATAAATGAAAACCATGTGAAGTTTAAATATAAAAAA
In the case of B1, the binding signal is 9.85 ln median PBM intensity, better of two orientations.

B2: XGTACX_negctrl_site39 (dsDNA)
DNA 1: TTTTTAATTATCTTTTCCCATGGTTTCTCCGTTTTT
DNA 2: AAAAACGGAGAAACCATGGGAAAAGATAATTAAAAA
Take B2: the binding signal is 9.84 ln median PBM intensity, better of two orientations.

B3: XGTACX_negctrl_site600 (dsDNA)
DNA 1: TTGAAATATACGTAAGTAAATTTCATTTGGTTGTGT
DNA 2: ACACAACCAAATGAAATTTACTTACGTATATTTCAA
Consider B3, for which the binding signal is 9.84 ln median PBM intensity, better of two orientations.

B4: XGTACX_negctrl_site369 (dsDNA)
DNA 1: TTTTTTTTTAATAAAATTATAATAAATATGAAATTA
DNA 2: TAATTTCATATTTATTATAATTTTATTAAAAAAAAA
Consider B4, for which the binding signal is 9.84 ln median PBM intensity, better of two orientations.

B5: XGTACX_negctrl_site35 (dsDNA)
DNA 1: TTTTGACTAATATAATATGTTAAGAATTAATAAATA
DNA 2: TATTTATTAATTCTTAACATATTATATTAGTCAAAA
Turning to B5, the binding signal was 9.84 ln median PBM intensity, better of two orientations.

B6: XGTACX_negctrl_site317 (dsDNA)
DNA 1: TTATATTCTTTTCTCTTTCTACTTTTTTTTTTTTTT
DNA 2: AAAAAAAAAAAAAAGTAGAAAGAGAAAAGAATATAA
Consider B6, for which the binding signal is 9.85 ln median PBM intensity, better of two orientations.

B7: XGTACX_negctrl_site524 (dsDNA)
DNA 1: AAAACTATTAATGCAAAAAATAAAATATAATAATAA
DNA 2: TTATTATTATATTTTATTTTTTGCATTAATAGTTTT
B7: the binding signal is 9.83 ln median PBM intensity, better of two orientations.

B8: XGTACX_negctrl_site244 (dsDNA)
DNA 1: AAAAATATGAAGACACAATATAGAAATAAAAATATA
DNA 2: TATATTTTTATTTCTATATTGTGTCTTCATATTTTT
As for B8, the binding signal was 9.84 ln median PBM intensity, better of two orientations.

B9: XGTACX_negctrl_site501 (dsDNA)
DNA 1: AAATTATAAAAAAAAAAAAAAAAAAAAAAAAAAAAA
DNA 2: TTTTTTTTTTTTTTTTTTTTTTTTTTTTTATAATTT
Take B9: the binding signal was 9.83 ln median PBM intensity, better of two orientations.

B10: XGTACX_negctrl_site343 (dsDNA)
DNA 1: B9 DNA 1 with A3T, T4A, T5A
DNA 2: B9 DNA 2 with A32T, A33T, T34A
For B10, the binding signal is 9.85 ln median PBM intensity, better of two orientations.

B11: XGTACX_negctrl_site26 (dsDNA)
DNA 1: TATAATTTTTTTGAATTATATATATATATATATAAT
DNA 2: ATTATATATATATATATATAATTCAAAAAAATTATA
Turning to B11, the binding signal is 9.84 ln median PBM intensity, better of two orientations.

B12: XGTACX_negctrl_site14 (dsDNA)
DNA 1: AAATAAAAAGAAAAGAAAAAGAAAATAAAAAGAGAA
DNA 2: TTCTCTTTTTATTTTCTTTTTCTTTTCTTTTTATTT
With B12, the binding signal is 9.83 ln median PBM intensity, better of two orientations.

B13: XGTACX_negctrl_site88 (dsDNA)
DNA 1: AAGGGGAGAAAAATAAACGAAATATATACATACATA
DNA 2: TATGTATGTATATATTTCGTTTATTTTTCTCCCCTT
As for B13, the binding signal was 9.83 ln median PBM intensity, better of two orientations.

B14: XGTACX_negctrl_site183 (dsDNA)
DNA 1: TATTTTTCTTTTTAAAAATATATCACATGAACATTA
DNA 2: TAATGTTCATGTGATATATTTTTAAAAAGAAAAATA
With B14, the binding signal is 9.84 ln median PBM intensity, better of two orientations.

B15: XGTACX_negctrl_site283 (dsDNA)
DNA 1: TACTAAAATATATATATGCAACATGAGATATTCAAC
DNA 2: GTTGAATATCTCATGTTGCATATATATATTTTAGTA
In the case of B15, the binding signal was 9.82 ln median PBM intensity, better of two orientations.

B16: XGTACX_negctrl_site160 (dsDNA)
DNA 1: ACATGCCAAAATCTAATACAATAATAATAAAAAAAA
DNA 2: TTTTTTTTATTATTATTGTATTAGATTTTGGCATGT
On to B16, for which the binding signal is 9.83 ln median PBM intensity, better of two orientations.

B17: XGTACX_negctrl_site451 (dsDNA)
DNA 1: AACAAATAAAAAAAAATAAAAATAAAAATAAAAAAA
DNA 2: TTTTTTTATTTTTATTTTTATTTTTTTTTATTTGTT
Turning to B17, the binding signal is 9.85 ln median PBM intensity, better of two orientations.

(Values after publication PMC11417369, “DNA sequence and chromatin differentiate sequence-specific transcription factor binding in the human malaria parasite Plasmodium falciparum”.)
